Data on one substance can be found in publication PMC9898101.

The data set has as its system MBP-ERS WT (human). Put plainly: EMSA. Particulars: 1 mM Mg2+; 5 ug/mL heparin (unit prefix not given); none (in vitro transcript); 25 mM Tris-HCl pH 7.5, 50 mM NaCl, 1 mM MgCl2, 1 mM DTT, 5 ug/mL heparin (prefix not given), 10 nM 32P-tRNA, room temperature 30 min; native 4-16% gel on …. (In general: Mobility shift assays separate free from complexed probe on a gel.)

Usually Kd stands for the constant that tells how readily two partners part at equilibrium. human tRNAGlu(TTC): the Kd was determined as 516 nM.
